Assay results as given in patent US20060234208A1, “Novel mechanism for hiv-1 entry into host cells and peptides inhibiting this mechanism” (priority 2002, published 2006).

Assays:
HIV-1 Ba-L = assay: Infection of PBMC with HIV-1 strain Ba-L (Example VI); assay type: cell-based; conditions: PHA-stimulated PBMCs, 2 h infection; versus 100 μM control peptide; SEQ 4 and 44: 100-50-10 μM, SEQ 127: 1 μM-100-10 nM
Protocol: This example is illustrated in FIG. 12. […] 4 (CSFINT), 44 (RDKVKK) and the complete gp120 region SEQ ID NO.127 (CSFNITTEIRDKVKK), where the entry experiment is performed with two strains of HIV-1 on peripheral blood cells (PBMCs) derived from healthy donors. In particular, strain III B uses CXCR4 as a co-receptor (X4) and Ba-L uses CCR5 (R5). […] In the graphs the percent inhibition of infection due to the peptides is shown, as compared to infection in the presence of 100 μM of a control peptide. PHA-stimulated PBMCs have been incubated with the peptides and immediately infected for 2 h at 37° C. This incubation time is sufficient to evaluate virus entry, by detecting the presence of early viral transcripts into the cytoplasm of infected cells. The peptide concentrations are as follows: SEQ ID NO.4 and 44: 100-50-10 μM; SEQ ID NO. 127: 1 μM-100-10 nM. In FIG. 12A is represented the effect of the peptides on the basal infection of both viral strains, in FIG. 1 2B the effect of the peptides on the infection following incubation with rTAT7 nM. A peptide-dependent inhibition of the basal infection by both HIV-1 strains is present already in the basal infection, reflecting the presence of TAT in the viral supernatants. In particular, these peptides are more efficient in reducing the basal infection by HIV-1 Ba-L than III B, reaching an inhibition from about 40% (SEQ ID NO. 44 and 127) to 70% (SEQ ID NO. 4). After cell incubation with 7 nM rTAT, the peptides have an enhanced efficacy in inhibiting the infection, and all of them show a dose-response effect, with similar outcomes on infections by both viral strains, confirming that their activity is related to the amount of membrane-bound TAT.
Cell cultures. U937 and C8166 cells were cultured in RPMI -1640 medium supplemented with 10% heat inactivated FCS; Phoenix cells were cultured in DMEM supplemented with 10% FCS; 293T cells were cultured in Iscove's medium supplemented with 10% FCS. […]
Infection with wild type HIV-1. […] Amplified DNA was analyzed by Southern blot hybridization with a ^32P-labeled probe, and quantified by densitometry. […]

[1] = target: TAT present in the viral supernatant of HIV-1 Ba-L (HIV-1 strain Ba-L); assay: cell-based or functional assay
recombinant TAT protein = target: T1, recombinant TAT protein (Human immunodeficiency virus type 1 group M subtype B, UniProt P69697, G61N/P58A/P59H/S77P/V67A); assay: Binding of selected phage to rTAT-coated microwells; set-up: species or system HIV-1; conditions: single phage clones; BSA and insertless phage FdTet as negative controls
T1 construct: TAT86 (full-length); purchased The Centralized facility for AIDS Reagents, National Institute for Biological Standards and Controls (donor Immunodiagnostic)
Source text: For this assay, we have tested single phage clones for binding rTAT-coated microwells, using an unrelated protein, the Bovine Serum Albumin (BSA), as a negative control. The result is shown in the graph, where ‘Transducing Units’ is a parameter indicating the number of bound phage. Binding of the phage to an insertless phage, FdTet, is shown as a negative control.

[2] = target: recombinant TAT86 III B (rTAT) (HIV-1 strain III B) (UniProt P04608)
[3] = test system: TAT+/gp120-LV entry into C8166 cells; assay: TAT+/gp120-LV entry into C8166 cells after co-culture with U937/TAT cells (Examples IV and V); assay type: cell-based, HIV-1; conditions: 4 h co-culture with U937/TAT cells; without protease inhibitors
Protocol: (§1) Transduction with HIV-1 -derived lentivirus. Vector stocks were prepared by transient co-transfection of 293T cells with the following combinations of plasmids: pRRL.hPGK.GFP.SIN-18+pCMV.DR8.2+pMD.G (Naldini et al. (1996), supra) (VSV-G-LV) or pEnvHXB (Huang et al., J. Virol. 72 (1998), 8952-8960) (TAT+/gp120-LV); pRRL.hPGK.GFP.SIN-18+pCMV.DR8.74 +pRSV-Rev ((Dull et al. (1998), supra)+pEnvHXB (TAT/gp120 -LV). Vector concentration was determined by HIV-1 p24 Core profile ELISA following the manufacturer's instructions. The entry experiments were conducted on 10^5 cells per well of a 48-well plate in the presence of 8 μg/ml polybrene. The number of GFP-positive cells was analysed by FACS.

[4] = test system: TAT+/gp120-LV entry into C8166 cells; assay: Effect of rTAT pre-incubation on TAT+/gp120-LV entry into C8166 cells; assay type: cell-based, HIV-1; conditions: C8166 cells pre-incubated with rTAT for 15 min
Protocol: This effect is reverted if the cells are pre-treated with Heparanase Ill. […] Again, this effect is reverted by pre-treating the cells with Heparanase IlI (FIG. 3B). To investigate the specificity of this effect, we have used lentiviral vectors pseudotyped with a different envelope, i.e. Vescicular Stomatitis Virus-G (VSV-G-LV), to transduce C8166 cells after co-culture with U937/TAT cells for different incubation times, or with the different U937/TAT clones for 2 h. […] Therefore, the increase in cell entry is strictly dependent not only on surface-bound TAT, but also on the presence of gp120. […]
as §1

[5] = test system: TAT/gp120-LV entry into C8166 cells; assay: Effect of GST-TAT variants on TAT-/gp120-LV entry into C8166 cells; assay type: cell-based, HIV-1; conditions: C8166 cells incubated with 7 μM GST-TAT variant for 15 min; compared to wild-type TAT86
Protocol: as §1

gp120 = gp120 (Human immunodeficiency virus type 1 group M subtype B, UniProt P03375); conditions: GST-fusion TAT HXB2 variants
Source text: The following TATHXB2 variants were produced as GST-fusion proteins as described (Mitola, S. et al. Identification of specific molecular structures of human immunodeficiency virus type 1 TAT relevant for its biological effects on vascular endothelial cells. J Virol 74, 344-53 (2000): TAT86 (full-length), TAT72 (product of TAT first exon), TATBasMut (with the mutations R-49,52,53,55,56,57-A), TATCysMut (with the mutations C-22,25,27-A.

## CSFNITTEIRDKVKK [SEQ ID NO. 127, Synthetic peptide corresponding to the selected region of gp120]
HIV-1 Ba-L
  percent inhibition of basal infection: about 40%

## soluble peptide SEQ ID NO. 4 (CSFNIT)
[1]
  percent inhibition of basal infection of PBMCs by HIV-1 Ba-L: 70%

## CTVECYFNCTPTC [SEQ ID NO.2, phage insert selected from CX3CX3CX3C Phage Display library, tested as phage]
Recombinant TAT protein
  phage binding to rTAT-coated microwells: specifically bind recombinant TAT protein

## CPDRKKKVVMVC [SEQ ID NO.3, phage insert selected from CX10C Phage Display library, tested as phage]
Recombinant TAT protein
  phage binding to rTAT-coated microwells: specifically bind recombinant TAT protein

## recombinant gp120 III B protein
[2]
  Kd: 8 nM

## RDKVKK [SEQ ID NO. 44]
HIV-1 Ba-L
  percent inhibition of basal infection: about 40%
[3]
  blocking of virus entry at a concentration lower than 100 μM: inefficient

## soluble peptide SEQ ID NO. 44 (RDKVKK)
[1]
  percent inhibition of basal infection of PBMCs by HIV-1 Ba-L: 40%

## CSFNIT [SEQ ID NO. 4]
HIV-1 Ba-L
  percent inhibition of basal infection: ~70%
[3]
  blocking of virus entry at a concentration lower than 100 μM: inefficient

B1: rTAT: recombinant TAT (TAT86 III B) protein (protein)
chain: MIPVDPRLEPWKHPGSQPKTACTNCYCKKCCFHCQVCFITKALGISYGRKKRRQRRRAHQNSQTHQASLSKQPTSQPRGDPTGPKE
[4]
  increase of TAT+/gp120-LV entry: dose-response effect in increasing TAT+/gp120-LV entry

B2: TATBasMut: GST-fusion TAT HXB2 variant with the mutations R-49,52,53,55,56,57-A (protein, UniProt P04608 1-86, looked up, variant R49A R52A R53A R55A R56A R57A)
Protein Tat: MEPVDPRLEPWKHPGSQPKTACTNCYCKKCCFHCQVCFITKALGISYGAKKAAQAAAAHQNSQTHQASLSKQPTSQPRGDPTGPKE
modifications: GST fusion
notes: GST-fusion TAT HXB2 variant with the mutations R-49,52,53,55,56,57-A
[5]
  enhancement of TAT/gp120-LV entry into the cells: ineffective in enhancing virus entry
gp120
  binding to rgp120-coated microwells: retaining the ability to bind gp120

B3: TATCysMut: GST-fusion TAT HXB2 variant with the mutations C-22,25,27-A (protein, UniProt P04608 1-86, looked up, variant C22A C25A C27A)
Protein Tat: MEPVDPRLEPWKHPGSQPKTAATNAYAKKCCFHCQVCFITKALGISYGRKKRRQRRRAHQNSQTHQASLSKQPTSQPRGDPTGPKE
modifications: GST fusion
notes: GST-fusion TAT HXB2 variant with the mutations C-22,25,27-A
[5]
  enhancement of TAT/gp120-LV entry into the cells: could enhance vector entry
